We go through two molecules from paper PMC6745501, “Plant photoreceptors and their signaling components compete for COP1 binding via VP peptide motifs” (The EMBO Journal, 2019).

The labels stand for the following.
B1: HY5^39–48 VP peptide (peptide, UniProt O24646 39-48, looked up)
peptide: EIRRVPEFGG
notes: ELONGATED HYPOCOTYL 5 (HY5) bZIP transcription factor, residues 39-48 (holds Arg41, Glu45); also called HY5 VP peptide; HY5 peptide; source: synthetic peptide (Peptide Specialty Labs GmbH)
B2: Arabidopsis COP1^349–675 WD40 domain (domain or fragment, UniProt P43254 349-675, looked up)
chain: TFTRYSRLRVIAEIRHGDIFHSANIVSSIEFDRDDELFATAGVSRCIKVFDFSSVVNEPADMQCPIVEMSTRSKLSCLSWNKHEKNHIASSDYEGIVTVWDVTTRQSLMEYEEHEKRAWSVDFSRTEPSMLVSGSDDCKVKVWCTRQEASVINIDMKANICCVKYNPGSSNYIAVGSADHHIHYYDLRNISQPLHVFSGHKKAVSYVKFLSNNELASASTDSTLRLWDVKDNLPVRTFRGHTNEKNFVGLTVNSEYLACGSETNEVYVYHKEITRPVTSHRFGSPDMDDAEEEAGSYFISAVCWKSDSPTMLTANSQGTIKVLVLAA
notes: COP1 (CONSTITUTIVELY PHOTOMORPHOGENIC 1) E3 ubiquitin ligase, Arabidopsis, WD40 domain, residues 349-675; also called COP1 WD40 domain; COP1 WD40; not shown: His10, N-terminal, cleaved; Twin-Strep, N-terminal, cleaved

Where a chain is given by its changes, count along the chain named.

Common to all, as to details: both partners purified
Assay [1] deals with B2. Description: ITC; VP peptide (titrant, 500-3,000 μM) injected into COP1 WD40 in the cell at about 10-fold lower concentration; 150 mM NaCl, 20 mM HEPES 7.4, 2 mM BME; 25°C; one-site binding model.
Assay [2] has as its target T1, COP1^Tyr441Ala WD40 domain (Arabidopsis, UniProt P43254 349-675, Tyr441Ala).
T1 construct: COP1, Arabidopsis, WD40 domain (mutant of COP1 349-675), Tyr441Ala; not shown: His10, N-terminal, cleaved; Twin-Strep, N-terminal, cleaved
T1 sequence (looked up): B2 chain with Y93A
Described as above.

Assay [3] deals with T2, COP1^349–675,Lys422Ala WD40 domain (Arabidopsis, UniProt P43254 349-675, Lys422Ala).
T2 construct: COP1, Arabidopsis, WD40 domain, residues 349-675, Lys422Ala; also called COP1^Lys422Ala; not shown: His10, N-terminal, cleaved; Twin-Strep, N-terminal, cleaved
T2 sequence (looked up): B2 chain with K74A
The assay is described as above.

The target in assay [4] is T3, UVR8^ValPro/AlaAla (recombinant) (Arabidopsis, UniProt Q9FN03 1-440, ValPro/AlaAla).
T3 construct: UVR8, Arabidopsis, Val-Pro of the C-terminal VP motif mutated to Ala-Ala; compared with the wild type (full-length) protein, monomer ~50 kDa; also called the mutant photoreceptor; not shown: His10, N-terminal, cleaved; Twin-Strep, N-terminal, cleaved
T3 sequence (looked up): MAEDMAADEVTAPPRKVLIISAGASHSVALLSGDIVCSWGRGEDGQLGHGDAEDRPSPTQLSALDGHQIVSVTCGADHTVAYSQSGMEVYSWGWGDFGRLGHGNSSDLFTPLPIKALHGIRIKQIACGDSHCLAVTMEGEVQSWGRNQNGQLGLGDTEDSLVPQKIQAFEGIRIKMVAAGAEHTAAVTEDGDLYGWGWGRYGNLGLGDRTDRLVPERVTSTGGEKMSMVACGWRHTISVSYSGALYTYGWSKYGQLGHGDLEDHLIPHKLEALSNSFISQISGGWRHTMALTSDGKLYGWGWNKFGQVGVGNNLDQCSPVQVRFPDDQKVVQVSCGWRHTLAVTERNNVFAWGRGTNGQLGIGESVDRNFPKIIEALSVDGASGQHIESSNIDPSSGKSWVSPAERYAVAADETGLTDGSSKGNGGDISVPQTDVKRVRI
Put plainly: SEC; analytical SEC, Superdex 200 Increase 10/300 GL; ~4 μM of each protein mixed; UVR8 form pre-monomerized by UV-B; 150 mM NaCl, 20 mM HEPES 7.4, 2 mM BME; fractions on Coomassie-stained SDS-PAGE. In general terms: Size exclusion chromatography separates by hydrodynamic size, large species first.

Assay [5] deals with T4, UVR8^12–381 β‐propeller core (Arabidopsis, UniProt Q9FN03 12-381).
T4 construct: also called UVR8 β‐propeller core; UVR8 core domain; not shown: His10, N-terminal, cleaved; Twin-Strep, N-terminal, cleaved
T4 sequence (looked up): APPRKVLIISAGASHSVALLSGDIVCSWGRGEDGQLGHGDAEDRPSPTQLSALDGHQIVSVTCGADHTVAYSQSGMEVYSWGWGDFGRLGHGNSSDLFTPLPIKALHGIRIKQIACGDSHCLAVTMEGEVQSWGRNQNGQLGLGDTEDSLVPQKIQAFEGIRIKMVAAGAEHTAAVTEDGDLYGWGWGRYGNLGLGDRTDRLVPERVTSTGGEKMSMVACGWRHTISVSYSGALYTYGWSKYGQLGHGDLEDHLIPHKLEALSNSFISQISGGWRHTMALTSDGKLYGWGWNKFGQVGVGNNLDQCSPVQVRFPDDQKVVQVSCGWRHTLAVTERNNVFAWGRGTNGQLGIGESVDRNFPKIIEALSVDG
Description: not stated; UV-B-activated UVR8 forms versus COP1 WD40 and its mutants; Appendix Figs S4B, S4C, S6A, S6B, not shown (ITC or GCI).

Assay [6] has as its target T5, full‐length UVR8 (recombinant) (Arabidopsis, UniProt Q9FN03 1-440).
T5 construct: UV … LOCUS 8 (UVR8) UV-B photoreceptor, Arabidopsis, full length; Dimer in the ground state; monomerized by 60 min UV-B on ice where the assay says so; not shown: His10, N-terminal, cleaved; Twin-Strep, N-terminal, cleaved
T5 sequence (looked up): T3 sequence (looked up) with A410V, A411P
Description: not stated; non-photoactivated (ground-state) full-length UVR8 versus COP1 WD40; Appendix Fig S4A, not shown (ITC or GCI).

For orientation: Kd means the concentration at which binding is half-saturated. As a reminder, the stoichiometry N is the number of molecules, sites or subunits per partner or assembly. Turning to B1, in assay [1], the Kd was roughly 20 µM and the “fold stronger binding than UVR8^406–413” value was roughly 8 fold. In assay [2], the “stoichiometry N” value is 0.92. In addition, in assay [3], the “stoichiometry N” value came out at 0.83.
Take B2: the binding result in assay [4] was “binds”. Besides, the figures for the Kd in assay [5] and in assay [6] were roughly 500 nM and roughly 1000 nM, respectively.
